Test results reported in patent publication US20230071283A1, “COMPOSITIONS AND METHODS FOR SELECTIVE PROTEIN EXPRESSION” (Novartis AG, priority 2017, published 2023).

Assays:
primary human T cells = assay: FurON CAR19 surface expression in primary human T cells (FACS, protein L); type: cell-based; conditions: cells prepared for the in vivo study; IL2 and 1 uM bazedoxifene; day 10
Method: Bazedoxifene and raloxifene were resuspended in DMSO. In all instances, where concentrations not indicated, compounds were added at 1 uM for 24 hours prior to analysis by flow cytometry.
. […] Cell number, size, and viability were also assessed.
Untransduced T cells (UTDs) and the parental CAR19 were used as controls. […] .
CART cells were generated by starting with blood from healthy apheresed donors whose naïve T cells were obtained by negative selection for T cells, CD4+ and CD8+ lymphocytes. These cells were activated by the addition of CD3/CD28 beads (Dynabeads® Human T-Expander CD3/CD28, Thermo Fisher Scientific) at a ratio of 1:3 (T cell to bead) in T cell medium (RPMI1640, 10% heat-inactivated fetal calf serum (FCS), 2 mM L-glutamine, lx Penicillin/Streptomycin, 100 μM non-essential amino acids, 1 mM Sodium Pyruvate, 10 mM Hepes, and 55 μM 2-mercaptoethanol) at 37° C., 5% CO2. T cells were cultured at 4×10^6 T cells (UTDs) or 5×10^6 (CART19 and FurON CART19) in 1 mL medium per well of a 24-well plate. […] T cells began to divide in a logarithmic growth pattern, which is monitored by measuring the cell counts per mL, and T cells are diluted in fresh medium every two days. […] On day 10 the cells are collected and the percentage of cells transduced (expressing the CD19-specific CAR on the cell surface) was determined by flow cytometry analysis on a FACS Fortessa (BD). […]

[1] = test system: NALM6, a CD19+ target cell line; assay: Cytokine secretion in co-culture with target cells; conditions: presence or absence of bazedoxifene; 20 hours; versus parental CAR19
CD19+ NALM6 cells = assay: Proliferation assay in co-culture with target cells (FACS, counting beads); conditions: presence or absence of bazedoxifene; 4 days; versus parental CAR19
NALM6 (CD19+) = assay: Killing assay with luciferized target cells (remaining luciferase activity); conditions: presence or absence of bazedoxifene; 20 hours; versus parental CAR19

B1: construct #130: furin degron with fewer mutations (ERmut2) fused to anti-CD19 scFV CAR; same furin cleavage sequence as #106 (protein)
chain: RSSLALSLTADQMVSALLDAEPPILYSEYDPTRPFSEASMMGLLTNLADRELVHMINWAKRVPGFVDLTLHDQVHLLECAWMEILMIGLVWRSMEHPGKLLFAPNLLLDRNQGKCVEGGVEIFDMLLATSSRFRMMNLQGEEFVCLKSIILLNSGVYTFLSSTLKSLEEKDHIHRVLDKITDTLIHLMAKAGLTLQQQHQRLAQLLLILSHIRHMSNKRMEHLYSMKCKNVVPLSDLLLEMLDAHRLGTGAEDPRPSRKRRSLGDVGEIVMTQSPATLSLSPGERATLSCRASQDISKYLNWYQQKPGQAPRLLIYHTSRLHSGIPARFSGSGSGTDYTLTISSLQPEDFAVYFCQQGNTLPYTFGQGTKLEIKGGGGSGGGGSGGGGSQVQLQESGPGLVKPSETLSLTCTVSGVSLPDYGVSWIRQPPGKGLEWIGVIWGSETTYYSSSLKSRVTISKDNSKNQVSLKLSSVTAADTAVYYCAKHYYYGGSYAMDYWGQGTLVTVSSTTTPAPRPPTPAPTIASQPLSLRPEACRPAAGGAVHTRGLDFACDIYIWAPLAGTCGVLLLSLVITLYCKRGRKKLLYIFKQPFMRPVQTTQEEDGCSCRFPEEEEGGCELRVKFSRSADAPAYKQGQNQLYNELNLGRREEYDVLDKRRGRDPEMGGKPRRKNPQEGLYNELQKDKMAEAYSEIGMKGERRRGKGHDGLYQGLSTATKDTYDALHMQALPPR
surface expression (mean fluorescence intensity, MFI) (primary human T cells): lower than the observed for CART19 | levels of IFNγ [1]: secrete cytokines in the presence of CD19+ tumor cells, in a manner that is stabilizing compound-dependent and is noninferior to the parental CAR construct | Proliferation (CD19+ NALM6 cells): proliferate in the presence of CD19+ tumor cells, in a manner that is stabilizing compound-dependent and is noninferior to the parental CAR construct | Percent tumor lysis (NALM6 (CD19+)): kill CD19+ tumor cells, in a stabilizing compound- and target-dependent manner and is noninferior to the parental CAR construct
